Assay results reported in PMC8190259, “Site-specific ubiquitylation acts as a regulator of linker histone H1” (Nature Communications, 2021).

B1: SIRT1 with N-terminal deletion (recombinant) (enzyme, human, UniProt Q96EB6 1-3, looked up)
chain: MADEAAAAGGEQEAQATAAAGEGDNGPGLQGPSREPPLADNLYDEDDDDEGEEEEEAAAAAIGYRDNLLFGDEIITNGFHSCESDEEDRASHASSSDWTPRPRIGPYTFVQQHLMIGTDPRTILKDLLPETIPPPELDDMTLWQIVINILSEPPKRKKRKDINTIEDAVKLLQECKKIIVLTGAGVSVSCGIPDFRSRDGIYARLAVDFPDLPDPQAMFDIEYFRKDPRPFFKFAKEIYPGQFQPSLCHKFIALSDKEGKLLRNYTQNIDTLEQVAGIQRIIQCHGSFATASCLICKYKVDCEAVRGDIFNQVVPRCPRCPADEPLAIMKPEIVFFGENLPEQFHRAMKYDKDEVDLLIVIGSSLKVRPVALIPSSIPHEVPQILINREPLPHLHFDVELLGDCDVIINELCHRLGGEYAKLCCNPVKLSEITEKPPRTQKELAYLSELPPTPLHVSEDSSSPERTSPPDSSVIVTLLDQAAKSNDDLDVSESKGCMEEKPQEVQTSRNVESIAEQMENPDLKNVGSSTGEKNERTSVAGTVRKCWPNRVAKEQISRRLDGNQYLFLPPNRYIFHGAEVYSDSEDDVLSSSSCGSNSDSGTCQSPSLEEPMEDESEIEEFYNGLEDEPDVPERAGGAGFGTDGDDQEAINEAISVKQEVTDMNYPSNKS
notes: human NAD+-dependent deacetylase SIRT1, aa 1-3 (construct of 669 aa: aa 1-3 + 82-747); human NAD+-dependent deacetylase SIRT1, aa 82-747 (construct of 669 aa: aa 1-3 + 82-747); source: E. coli BL21 (DE3), purified (HisTrap FF, size-exclusion chromatography); not shown: His6, C-terminal, kept
B2: 601 DNA (dsDNA)
DNA 1: CTATACGCGGCCGCCCTGGAGAATCCCGGTGCCGAGGCCGCTCAATTGGTCGTAGCAAGCTCTAGCACCGCTTAAACGCACGTACGCGCTGTCCCCCGCGTTTTAACCGCCAAGGGGATTACTCCCTAGTCTCCAGGCACGTGTCAGATATATACATCCTGTGCATGTGGATCCGAAT
DNA 2: ATTCGGATCCACATGCACAGGATGTATATATCTGACACGTGCCTGGAGACTAGGGAGTAATCCCCTTGGCGGTTAAAACGCGGGGGACAGCGCGTACGTGCGTTTAAGCGGTGCTAGAGCTTGCTACGACCAATTGAGCGGCCTCGGCACCGGGATTCTCCAGGGCGGCCGCGTATAG

Tests used:
[1] = molecular target: T1, linker histone H1.2 (unmodified, recombinant) (human, UniProt P16403 1-213); experiment: cross-linking; XL-MS: histone/Ub and SIRT1 at molar ratio 1:1 in 1x PBS, 2.75 mM BS3-H12/D12, 10 min on ice then 20 min at 30 °C; three biological replicates; settings: both partners purified
T1 construct: human linker histone H1.2; also called non-modified H1.2; unmodified H1.2; source: E. coli BL21 (DE3), purified from inclusion bodies (His-tag resin); not shown: Strep-tag II, N-terminal, kept; His6, C-terminal, kept
T1 sequence (P16403 whole entry): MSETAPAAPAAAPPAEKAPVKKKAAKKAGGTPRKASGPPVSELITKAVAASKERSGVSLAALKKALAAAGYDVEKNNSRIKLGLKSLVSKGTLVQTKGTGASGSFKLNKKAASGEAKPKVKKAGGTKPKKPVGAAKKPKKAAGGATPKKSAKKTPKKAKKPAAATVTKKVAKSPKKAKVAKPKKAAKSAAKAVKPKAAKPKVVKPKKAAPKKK

H1.2 = H1.2 (Homo sapiens, UniProt P16403 1-213); experiment: condensate FRAP; 5 uM histone, 5 uM DNA; Condensates: 1x PBS, RT; array EMSA: agarose gel with competitor DNA, buffer not in the material; settings: protein: recombinant; tags: C-terminal His6; label: Atto-390 at 5' end of the reverse strand; blunt
H1.2, sequence (P16403 whole entry): as above

| Binder | binding result [1] | binding result (H1.2) |
| --- | --- | --- |
| B1 | binds |  |
| B2 |  | binds |
